In US20240117325:

B1: fusion protein of ferredoxin-thioredoxin reductase (FTRB/FTRA2) and thioredoxin Y2 fused via linker peptide (GGGGS)3 of 15 amino acid residues (protein)
chain 1: AKTEPSEKSVEIMRKFSEQYARRSGTYFCVDKGVTSVVIKGLAEHKDSYGAPLCPCRHYDDKAAEVGQGFWNCPCVPMRERKECHCMLFLTPDNDFAGKDQTITSDEIKETTANMGGGGSGGGGSGGGGSAAKKQTFNSFDDLLQNSDKPVLVDFYATWCGPCQLMVPILNEVSETLKDIIAVVKIDTEKYPSLANKYQIEALPTFILFKDGKLWDRFEGALPANQLVERIENSLQVKQ
chain 2: DIAVKSAASVDADADLSSSTSLETEEDEKAKEKIGARVRVTVPLKVYHVVRVPEVELMGMEGFIKDYVVLWKGKKISANLPFKVQFVKEIEGRGPVKFFTHLKEDEFELIDPHHHHHH
B2: fusion protein of ferredoxin-thioredoxin reductase (FTRB/FTRA2) and thioredoxin Y2 fused via linker peptide (GGGGS)2 of 10 amino acid residues (protein)
chain 1: AKTEPSEKSVEIMRKFSEQYARRSGTYFCVDKGVTSVVIKGLAEHKDSYGAPLCPCRHYDDKAAEVGQGFWNCPCVPMRERKECHCMLFLTPDNDFAGKDQTITSDEIKETTANMGGGGSGGGGSAAKKQTFNSFDDLLQNSDKPVLVDFYATWCGPCQLMVPILNEVSETLKDIIAVVKIDTEKYPSLANKYQIEALPTFILFKDGKLWDRFEGALPANQLVERIENSLQVKQ
chain 2: B1 chain 2
B3: fusion protein of ferredoxin-thioredoxin reductase (FTRB/FTRA2) and thioredoxin Y2 fused via linker peptide (GGGGS)1 of 5 amino acid residues (protein)
chain 1: AKTEPSEKSVEIMRKFSEQYARRSGTYFCVDKGVTSVVIKGLAEHKDSYGAPLCPCRHYDDKAAEVGQGFWNCPCVPMRERKECHCMLFLTPDNDFAGKDQTITSDEIKETTANMGGGGSAAKKQTFNSFDDLLQNSDKPVLVDFYATWCGPCQLMVPILNEVSETLKDIIAVVKIDTEKYPSLANKYQIEALPTFILFKDGKLWDRFEGALPANQLVERIENSLQVKQ
chain 2: B1 chain 2

What follows are proteins tested against β-lactoglobulin.
For B1, the “allergenic protein degradation rate” value was “the degradation rate was 56%”, the “allergenic protein residual rate” value was “the allergenic protein residual rate was 44%” and the “reductase activity (AMS labelling, SDS-PAGE)” value (from here on “reductase activity”) was “The reduced form of the allergenic protein was detected in all of (b) to (d) in FIG. 11, confirming reductase activity”. For B2, the “allergenic protein degradation rate” value was “the degradation rate was 58%”, the “allergenic protein residual rate” value was “the allergenic protein residual rate was 42%” and the “reductase activity” value was “The reduced form of the allergenic protein was detected in all of (b) to (d) in FIG. 11, confirming reductase activity”. In the case of B3, the “allergenic protein degradation rate” value is reported as “the degradation rate was 29%”, the “allergenic protein residual rate” value is reported as “the allergenic protein residual rate was 71%” and the “reductase activity” value is reported as “The reduced form of the allergenic protein was detected in all of (b) to (d) in FIG. 11, confirming reductase activity”.
